The text below walks through data of article PMC10352329 (Nature Communications, 2023).

What all share (details): both partners purified
Test [1] concerns the target N-terminal bromodomain of human BRD4 (residues 44–168) (human, UniProt O60885 44-168). The test can be described thus: ITC; 100 µM protein in the cell, 1 mM acetylated histone NT peptide in the syringe; 25 °C; 10 mM HEPES-NaOH pH 7.4, 150 mM NaCl; single binding site model. Background: Isothermal titration calorimetry measures the heat released or taken up as one component is titrated into another.

Test [2] deals with T1, human p300BRP (residues 1048–1282), wild type (human, UniProt Q09472 1048-1282, fluorescently labeled with a His tag Labeling Kit (microscale thermophoresis only)).
T1 sequence (looked up): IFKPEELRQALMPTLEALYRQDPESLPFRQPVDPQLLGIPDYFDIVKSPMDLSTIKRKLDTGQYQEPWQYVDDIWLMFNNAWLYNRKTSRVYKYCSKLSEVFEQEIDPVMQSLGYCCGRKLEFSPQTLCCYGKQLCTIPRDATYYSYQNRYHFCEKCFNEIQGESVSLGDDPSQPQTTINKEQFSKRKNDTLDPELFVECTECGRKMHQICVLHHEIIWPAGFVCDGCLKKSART
The description is as above.

Test [3] deals with T2, K12/K16-acetylated human histone H4 (as it stands in H4acNuc) (human, UniProt P62805 1-103, acetyl-lysine at K12 and K16).
T2 construct: human histone H4 ORF with the codons of K12 and K16 replaced by TAG for acetyllysine; The H4 chain of m6; met p300/CBP only inside the nucleosome; also called H4K12ac/K16ac; H4NTac; source: cell-free synthesis (E. coli S30 extract, genetic code reprogramming), purified, assembled into H4acNuc
Description: cryo-EM structure; p300_(BRPHZT) or CBP_(BRPHZT), acetyl-CoA and nucleosome mixed 4:6:1 in 20 mM HEPES-NaOH pH 7.2, 150 mM NaCl, 1 μM ZnCl2, 1 mM TCEP; purified and cross-linked by GraFix (glutaraldehyde).

Where no end group is shown, it is not given here.

What is called Kd is the equilibrium constant for the complex coming apart. The low end stands for a tighter complex, the high end for a looser complex. In turn, PAPKK(Ac)GSK(Ac)KAVTK [di-acetylated H2B peptide K12ac/K15ac] registered a dissociation constant Kd in test [1] of 430 ± 5 µM. Consider KAVTK(Ac)AQK(Ac)KDGK [di-acetylated H2B peptide K20ac/K23ac], for which the Kd in test [2] was determined as 200 ± 30 µM.

B1: human p300_(BRPHZT) (residues 1048–1836) (domain or fragment)
chain: IFKPEELRQALMPTLEALYRQDPESLPFRQPVDPQLLGIPDYFDIVKSPMDLSTIKRKLDTGQYQEPWQYVDDIWLMFNNAWLYNRKTSRVYKYCSKLSEVFEQEIDPVMQSLGYCCGRKLEFSPQTLCCYGKQLCTIPRDATYYSYQNRYHFCEKCFNEIQGESVSLGDDPSQPQTTINKEQFSKRKNDTLDPELFVECTECGRKMHQICVLHHEIIWPAGFVCDGCLKKSARTRKENKFSAKRLPSTRLGTFLENRVNDFLRRQNHPESGEVTVRVVHASDKTVEVKPGMKARFVDSGEMAESFPYRTKALFAFEEIDGVDLCFFGMHVQEYGSDCPPPNQRRVYISYLDSVHFFRPKCLRTAVYHEILIGYLEYVKKLGYTTGHIWACPPSEGDDYIFHCHPPDQKIPKPKRLQEWYKKMLDKAVSERIVHDYKDIFKQATEDRLTSAKELPYFEGDFWPNVLEESIKELEQEEEERKREENTSNESTDVTKGDSKNAKKKNNKKTSKNKSSLSRGNKKKPGMPNVSNDLSQKLYATMEKHKEVFFVIRLIAGPAANSLPPIVDPDPLIPCDLMDGRDAFLTLARDKHLEFSSLRRAQWSTMCMLVELHTQSQDRFVYTCNECKHHVETRWHCTVCEDYDLCITCYNTKNHDHKMEKLGLGLDDESNNQQAAATQSPGDSRRLSIQRCIQSLVHACQCRNANCSLPSCQKMKRVVQHTKGCKRKTNGGCPICKQLIALCCYHAKHCQENKCPVPFCLNIKQKLRQQQLQHRLQQAQMLRRRMASMQ
modifications: autoacetylated form containing K1542ac, K1546ac, K1549ac, K1550ac, K1551ac, K1554ac, K1555ac, K1558ac and K1560ac
In the case of B1, the binding result in test [3] was “binds”.

B2: human CBP_(BRPHZT) (residues 1084–1873) (domain or fragment)
chain: IFKPEELRQALMPTLEALYRQDPESLPFRQPVDPQLLGIPDYFDIVKNPMDLSTIKRKLDTGQYQEPWQYVDDVWLMFNNAWLYNRKTSRVYKFCSKLAEVFEQEIDPVMQSLGYCCGRKYEFSPQTLCCYGKQLCTIPRDAAYYSYQNRYHFCEKCFTEIQGENVTLGDDPSQPQTTISKDQFEKKKNDTLDPEPFVDCKECGRKMHQICVLHYDIIWPSGFVCDNCLKKTGRPRKENKFSAKRLQTTRLGNHLEDRVNKFLRRQNHPEAGEVFVRVVASSDKTVEVKPGMKSRFVDSGEMSESFPYRTKALFAFEEIDGVDVCFFGMHVQEYGSDCPPPNTRRVYISYLDSIHFFRPRCLRTAVYHEILIGYLEYVKKLGYVTGHIWACPPSEGDDYIFHCHPPDQKIPKPKRLQEWYKKMLDKAFAERIIHDYKDIFKQATEDRLTSAKELPYFEGDFWPNVLEESIKELEQEEEERKKEESTAASETTEGSQGDSKNAKKKNNKKTNKNKSSISRANKKKPSMPNVSNDLSQKLYATMEKHKEVFFVIHLHAGPVINTLPPIVDPDPLLSCDLMDGRDAFLTLARDKHWEFSSLRRSKWSTLCMLVELHTQGQDRFVYTCNECKHHVETRWHCTVCEDYDLCINCYNTKSHAHKMVKWGLGLDDEGSSQGEPQSKSPQESRRLSIQRCIQSLVHACQCRNANCSLPSCQKMKRVVQHTKGCKRKTNGGCPVCKQLIALCCYHAKHCQENKCPVPFCLNIKHKLRQQQIQHRLQQAQLMRRRMATMN
As for B2, in test [3], the binding result was “binds”.
